One block for each substance: values may come before it.
Columns and labels:
proteasome = assay: cell-based or functional assay
[1] = system: IκB(S32A, S36A)-Bla mutant fusion protein
[2] = molecular target: IκBα-beta-lactamase (IκBα-Bla) fusion protein, wild type (N-terminal IκBα and C-terminal Bla); assay: cell-based or functional assay

- IC50 for inhibition of the TNFα-stimulated decrease in reporter levels (proteasome): 5 µM
Substance: ALLN (peptide)

Substance: IκB kinase (IKK)
- decrease in β-lactamase activity in response to TNFα treatment (10 ng/ml, 30 minutes) [1]: the mutation of serines-32 and -36 abolished the decrease in β-lactamase activity in response to TNFα treatment

- decrease in β-lactamase activity of Jurkat IκB-Bla cells after 10 ng/ml TNFα [2]: 2 fold
Substance: IκB kinase (IKK) (enzyme)

Reference: patent US20050095616A1
